# B1: Tsc1-D-His6 (domain or fragment, UniProt Q92574 998-1164, looked up)
# chain: DGCSDSMVGHNEEASGHNGETKTPRPSSARGSSGSRGGGGSSSSSSELSTPEKPPHQRAGPFSSRWETTMGEASASIPTTVGSLPSSKSFLGMKARELFRNKSESQCDEDGMTSSLSESLKTELGKDLGVEAKIPLNLDGPHPSPPTPDSVGQLHIMDYNETHHEHS
# notes: predicted monomer 22.1 kDa; dimer by gel filtration; also called fragment D; source: E. coli Tuner pLysS, purified (Ni-NTA)
# Molecular target: the molecule itself
# Assay: SEC; Tsc1-D-His6 concentrated to 10 mg/ml, Superdex 75 gel filtration
protein,measurement,value
B1,stoichiometry N,2
